One molecule from publication doi:10.1101/2021.01.25.428185 (bioRxiv, 2021) can be followed below.

The target of assay [1] is T1, GST-Rab11A(CA), mouse Rab11A(Q70L), GTPγS-loaded (mouse, UniProt P62492 1-216, Q70L).
T1 sequence (looked up): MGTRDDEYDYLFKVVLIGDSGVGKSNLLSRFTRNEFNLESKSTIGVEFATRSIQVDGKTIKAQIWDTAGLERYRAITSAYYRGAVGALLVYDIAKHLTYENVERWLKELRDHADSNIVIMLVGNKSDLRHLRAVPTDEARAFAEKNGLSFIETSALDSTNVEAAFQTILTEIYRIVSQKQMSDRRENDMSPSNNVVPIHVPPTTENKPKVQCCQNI
Description: pull-down.

For assay [2], the target named is T2, GST-Rab11A(CN), mouse Rab11A(N124I), GDP-loaded (mouse, UniProt P62492 1-216, N124I).
T2 sequence (looked up): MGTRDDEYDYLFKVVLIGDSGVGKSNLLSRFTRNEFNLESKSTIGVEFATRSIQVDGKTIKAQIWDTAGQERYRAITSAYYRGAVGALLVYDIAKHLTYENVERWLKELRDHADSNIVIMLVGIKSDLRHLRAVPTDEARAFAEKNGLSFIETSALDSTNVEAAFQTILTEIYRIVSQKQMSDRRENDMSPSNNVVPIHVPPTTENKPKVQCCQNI
Description: pull-down.

B1: T7-tagged Rab11-FIP2-C (domain or fragment, mouse, UniProt G3XA57 389-512, looked up)
chain: PSAFSENRQDYFEYESTNPFTAKFRASTIMPSSSFHVNPTSSEDLRKIPDNNPFDATAGYRSLTYEEVLQELVKHKELLRRKDTHIRELEDYIDNLLVRVMEETPSILRVPYEPSRKAGKFTNS
In the case of B1, the binding result in assay [1] and in assay [2] was “binds” throughout.
